Reference: publication PMC8206089, “Split NanoLuc technology allows quantitation of interactions between PII protein and its receptors with unprecedented sensitivity and reveals transient interactions” (Scientific Reports, 2021)
Blank lines part the entries; values can stand above or below the substance they belong to.

Columns and labels:
[1] = biological target: NAGK (Synechococcus elongatus) (UniProt Q6V1L5); test: ultrafiltration; conditions: cited from earlier work
[2] = biological target: PII-LgBiT (wild-type PII protein from Synechocystis sp. PCC6803 fused to Large BiT) (Synechocystis sp. PCC6803) (UniProt Q55247); test: split reporter (BiFC, NanoBiT); competition; 10 pM PII-LgBiT trimer with PipX (180, 900, 1800 nM monomer) 15 min at 30 °C, then 180 nM NAGK-SmBiT monomer for 30 min; 2 mM ATP
PII-LgBiT (wild-type PII protein from Synechocystis sp. PCC6803 fused to Large BiT) (Synechocystis sp. PCC6803), sequence (Q55247 whole entry, the tested form may be a part): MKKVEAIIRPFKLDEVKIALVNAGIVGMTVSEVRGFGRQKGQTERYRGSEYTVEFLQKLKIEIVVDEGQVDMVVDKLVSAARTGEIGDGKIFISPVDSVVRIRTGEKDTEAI

[3] = biological target: PII-LgBiT (wild-type PII protein from Synechocystis sp. PCC6803 fused to Large BiT) (Synechocystis sp. PCC6803) (UniProt Q55247); test: split reporter (BiFC, NanoBiT); time course; 10 pM PII-LgBiT and 10 nM PipX-SmBiT; complex formed with 2 mM ATP, then 2 mM 2-OG added
[4] = biological target: PII-LgBiT (wild-type PII protein from Synechocystis sp. PCC6803 fused to Large BiT) (Synechocystis sp. PCC6803) (UniProt Q55247); test: split reporter (BiFC, NanoBiT); time course; 10 pM PII-LgBiT and 10 nM PipX-SmBiT; ATP/ADP mixtures at a total ADP + ATP concentration of 2 mM
[5] = biological target: PII-LgBiT (wild-type PII protein from Synechocystis sp. PCC6803 fused to Large BiT) (Synechocystis sp. PCC6803) (UniProt Q55247); test: split reporter (BiFC, NanoBiT); time course; 10 pM PII-LgBiT and 10 nM PipX-SmBiT; complex formed with 1 mM ATP + 1 mM ADP, then 2 mM 2-OG added
[6] = biological target: PII-LgBiT (wild-type PII protein from Synechocystis sp. PCC6803 fused to Large BiT) (Synechocystis sp. PCC6803) (UniProt Q55247); test: split reporter (BiFC, NanoBiT); in solution; PipX-SmBiT (0-800 nM) titrated to 10 pM PII-LgBiT trimer; 2 mM ADP; 50 mM Tris/HCl pH 7.6, 100 mM KCl, 10% glycerol, 2 mM MgCl2, 0.1% BSA; 15 min at 30 °C; KD from half-maximal luminescence
[7] = biological target: PII-LgBiT (wild-type PII protein from Synechocystis sp. PCC6803 fused to Large BiT) (Synechocystis sp. PCC6803) (UniProt Q55247); test: split reporter (BiFC, NanoBiT); in solution; PipX-SmBiT (0-800 nM) titrated to 10 pM PII-LgBiT trimer; 2 mM ATP; 50 mM Tris/HCl pH 7.6, 100 mM KCl, 10% glycerol, 2 mM MgCl2, 0.1% BSA; 15 min at 30 °C; KD from half-maximal luminescence

PII, sequence (P0A3F4 whole entry): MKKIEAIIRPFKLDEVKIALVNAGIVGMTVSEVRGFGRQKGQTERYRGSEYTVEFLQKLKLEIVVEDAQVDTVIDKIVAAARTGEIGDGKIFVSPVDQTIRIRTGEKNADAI
NAGK (Synechococcus elongatus), sequence (Q6V1L5 whole entry, the tested form may be a part): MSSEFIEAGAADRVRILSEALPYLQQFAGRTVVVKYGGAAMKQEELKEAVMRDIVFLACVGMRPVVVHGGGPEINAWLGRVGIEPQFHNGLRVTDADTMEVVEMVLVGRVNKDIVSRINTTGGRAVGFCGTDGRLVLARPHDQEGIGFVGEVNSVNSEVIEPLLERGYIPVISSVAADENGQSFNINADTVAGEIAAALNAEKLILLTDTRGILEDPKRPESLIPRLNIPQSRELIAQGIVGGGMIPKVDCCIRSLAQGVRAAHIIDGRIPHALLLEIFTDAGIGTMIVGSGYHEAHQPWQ

Substance: PII (from UniProt P0A3F4)
Kd [1]: 0.073 µM

luminescence signal of PII-LgBiT with NAGK-SmBiT left at PipX 1:1 to NAGK (2 mM ATP) [2]: 50%
Substance: PipX (without SmBiT, competitor) (natural protein)

time until half of the complex was dissociated after adding 2 mM 2-OG (2 mM ATP) [3]: 45 s
luminescence signal with 0.5 mM ADP + 1.5 mM ATP (percent) [4]: 80%
time until half of the complexes was dissociated after adding 2 mM 2-OG (1 mM ATP + 1 mM ADP) [5]: 340 s
Kd [6]: 0.0057 µM
Kd [7]: 0.052 µM
Substance: PipX-SmBiT (PII-interacting protein X fused to Small BiT) (natural protein)
